The values below come from patent publication US20250186597A1 (BRIGHT PEAK THERAPEUTICS, published 2025).

Test [1] addresses T1, Biotinylated Recombinant Human PD-1/CD279-Fc Chimera, carrier-free, Biolegend #789406 (human, UniProt Q15116 25-167, biotinylated (site not stated)).
T1 construct: Bought reagent; also called recombinant biotinylated human PD-1; human PD1/CD279 ligand; Fc part of the bought chimera not given; not described
In words: ELISA; antibody coated, biotinylated human PD-1-Fc titrated.

Test [2] has as its target T2, His-tagged human PD1, R&D #8986-PD (human, UniProt Q15116 25-167).
T2 construct: Bought reagent; not shown: His tag
The experiment in a line: BLI (Octet), antibody on AHC sensor, His-tagged human PD1 as analyte.

In test [3] the target is T1, Biotinylated Recombinant Human …. The experiment in a line: ELISA; antibody coated on the plate, biotinylated human PD-1-Fc titrated in solution (x axis), streptavidin-HRP, signal at 450 nm.
Test [4] concerns the target T3, recombinant Human Fc gamma RI/CD64 Protein (R&D systems, 1257-FC-050, CF) (human, UniProt P12314 16-288).
T3 construct: also called FcγRI/CD64; human Fc gamma receptor I (CD64)
In words: ELISA; antibody coated, Fc gamma receptor titrated.

The target of test [5] is T4, recombinant Human Fc gamma RIIA/CD32a (H167) Protein (R&D systems, 9595-CD-050, CF) (human, UniProt P12318 36-218).
T4 construct: also called FcγRIIa/CD32a; human Fc gamma receptors IIa
T4 sequence (looked up): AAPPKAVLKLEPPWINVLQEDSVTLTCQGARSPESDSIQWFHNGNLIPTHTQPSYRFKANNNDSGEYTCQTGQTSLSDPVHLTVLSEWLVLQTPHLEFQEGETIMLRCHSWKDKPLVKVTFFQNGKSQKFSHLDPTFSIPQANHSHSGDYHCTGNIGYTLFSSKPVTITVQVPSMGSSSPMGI
The experiment in a line: ELISA; antibody coated, Fc gamma receptor titrated.

Test [6] concerns the target T5, recombinant Human Fc gamma RIIIA/CD16a Protein (R&D systems, 4325-FC-050; CF) (human, UniProt P08637 17-208, limits assumed).
T5 construct: also called FcγRIIIa/CD16; human Fc gamma receptor IIIa (CD16)
The experiment in a line: ELISA; antibody coated, Fc gamma receptor titrated.

For test [7], the target named is T6, recombinant Human Fc gamma RIIB/CD32b Avi-tag Protein (R&D systems, AVI1875-050, CF) (human, UniProt P31994 46-217).
T6 construct: also called FcγRIIb/CD32b
T6 sequence (looked up): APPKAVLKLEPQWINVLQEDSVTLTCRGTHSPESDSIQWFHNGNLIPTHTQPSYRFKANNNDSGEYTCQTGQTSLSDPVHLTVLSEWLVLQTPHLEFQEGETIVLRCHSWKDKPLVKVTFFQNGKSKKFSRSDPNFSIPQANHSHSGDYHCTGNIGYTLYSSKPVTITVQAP
In words: ELISA; antibody coated, Fc gamma receptor titrated.

In test [8] the target is T7, recombinant biotinylated human FcRn (human, UniProt P55899 24-297; P61769 21-119, limits assumed, biotinylated (site not stated)).
T7 construct: also called human neonatal Fc receptor (FcRn); human Fc neonatal receptor
The experiment in a line: AlphaLISA competition at pH 6; competitor: human IgG on acceptor beads.

B1: LZM-009 (antibody, V domains shown)
VH: QVQLVQSGAEVKKPGASVKVSCKASGYTFTSYYMYWVRQAPGQGLEWMGGVNPSNGGTNFNEKFKSRVTITADKSTSTAYMELSSLRSEDTAVYYCARRDYRYDMGFDYWGQGTTVTVSS
VL: EIVLTQSPATLSLSPGERATISCRASKGVSTSGYSYLHWYQQKPGQAPRLLIYLASYLESGVPARFSGSGSGTDFTLTISSLEPEDFATYYCQHSRELPLTFGTGTKVEIK
notes: full antibody with an Fc region (K248, EU numbering); also called anti-PD-1 antibody LZM-009
In the case of B1, in test [1], the equilibrium dissociation constant (Kd) turned out to be 0.0407 nM. In test [2], this molecule yielded a Kd of 23.5 nM, a koff of 0.0077 s⁻¹ and a kon of 342000 M⁻¹ s⁻¹. Moreover, in test [3], the “EC50 (read off the curve)” value was roughly 0.06 nM.

B2: Durvalumab/Imfinzi (antibody, human IgG1, kappa)
heavy: EVQLVESGGGLVQPGGSLRLSCAASGFTFSRYWMSWVRQAPGKGLEWVANIKQDGSEKYYVDSVKGRFTISRDNAKNSLYLQMNSLRAEDTAVYYCAREGGWFGELAFDYWGQGTLVTVSSASTKGPSVFPLAPSSKSTSGGTAALGCLVKDYFPEPVTVSWNSGALTSGVHTFPAVLQSSGLYSLSSVVTVPSSSLGTQTYICNVNHKPSNTKVDKRVEPKSCDKTHTCPPCPAPEFEGGPSVFLFPPKPKDTLMISRTPEVTCVVVDVSHEDPEVKFNWYVDGVEVHNAKTKPREEQYNSTYRVVSVLTVLHQDWLNGKEYKCKVSNKALPASIEKTISKAKGQPREPQVYTLPPSREEMTKNQVSLTCLVKGFYPSDIAVEWESNGQPENNYKTTPPVLDSDGSFFLYSKLTVDKSRWQQGNVFSCSVMHEALHNHYTQKSLSLSPGK
light: EIVLTQSPGTLSLSPGERATLSCRASQRVSSSYLAWYQQKPGQAPRLLIYDASSRATGIPDRFSGSGSGTDFTLTISRLEPEDFAVYYCQQYGSLPWTFGQGTKVEIKRTVAAPSVFIFPPSDEQLKSGTASVVCLLNNFYPREAKVQWKVDNALQSGNSQESVTEQDSKDSTYSLSSTLTLSKADYEKHKVYACEVTHQGLSSPVTKSFNRGEC
notes: also called MEDI-4736
Regarding B2, the Kd turned out to be 2.34 nM in test [4]; 160 nM in test [5]; 234 nM in test [6]; 233 nM in test [7]; 8.31 nM in test [8].
